Legend:
[1] = molecular target: Gc protein in CCHFV-YL16070-infected Vero E6 cells (Crimean-Congo hemorrhagic fever virus, …, strain); test: western blot; settings: one partner purified
[2] = molecular target: T1, sGc-S-tag (Gc ectodomain of CCHFV-YL16070 with an S-tag) (Crimean-Congo hemorrhagic fever virus, …, strain, biotin (labelled for BLI)); test: BLI; […] (25 ug/mL), […]; PBS with 0.1% BSA and 0.02% Tween-20; association 600 s, dissociation 600 s; Octet-Red 96; settings: both partners purified
T1 construct: not shown: S-tag, N-terminal, kept

Binder | binding result [1] | Kd [2] [nM]
Gc13 monoclonal antibody (antibody, V domains shown, also called mAb Gc13; copies: 2 + 2) VH: QVQLQQSGPEVVRPGVSVKISCKGSGYTFTDYATHWVKQSHVKSLEWIGVISTYNGETDCNQKFKGKATMTVDKSSSTAYMELARLTSEDSAIYYCANGYYQAMDYWGQGTSVTVSS VL: DIQMTQTPSSLSASLGDRVTISCRASQDISNYLNWYQQRPDGTLKLLIYYTSRLHSGVPSRFSGSGSGTDYSLTISNLEQEDIATYFCQQGSTLPWTFGGGTKLEIK | binds | 0.0324
Gc8 monoclonal antibody (antibody, V domains shown, also called mAb Gc8; copies: 2 + 2) VH: QVQLQQPGAEVVKPGASVKMSCKASGYTFTSYSMHWVKQTPGQGLEWIGAIYPGNGDTSYNQKFKGKATLTADKSSSTAYMQLSSLTSEDSAGYYCARGDQYYGYFDFWGQGTTLTVSS VL: DIQMTQSPASLSASVGETVTITCRTSENIYSFLAWYQQKQGKSPQRLVSHAKALAEGVPSRFSGSGTGTQFSLKINSLQPEDFGSYYCQHHYGIPLTFGAGTKLELK | binds | 0.0834

From paper PMC10863865 (PLOS Pathogens, 2024)
